Patent US20030180895A1

Assays:
Experiment in all cases: cell-based or functional assay
[1] = biological target: Bacillus subtilis xylanase A mutant D11W (Bacillus subtilis) (UniProt P18429)
[2] = biological target: Bacillus subtilis xylanase A mutant D11Y (Bacillus subtilis) (UniProt P18429)
[3] = biological target: Bacillus subtilis xylanase A mutant N17K (Bacillus subtilis) (UniProt P18429)
[4] = biological target: Bacillus subtilis xylanase A mutant N114F (Bacillus subtilis) (UniProt P18429)
[5] = biological target: Bacillus subtilis wild type xylanase A (Bacillus subtilis) (UniProt P18429)
[6] = biological target: Bacillus subtilis xylanase A mutant Y166F (Bacillus subtilis) (UniProt P18429)

Relative inhibition, % at 1, 26 XIU/ml [1]: 101%
Relative inhibition, % at 3, 15 XIU/ml [1]: 88%
Relative inhibition, % at 6, 3 XIU/ml [1]: 70%
Relative inhibition, % at 12, 6 XIU/ml [1]: 50%
Relative inhibition, % at 1, 26 XIU/ml [2]: 120%
Relative inhibition, % at 3, 15 XIU/ml [2]: 114%
Relative inhibition, % at 6, 3 XIU/ml [2]: 126%
Relative inhibition, % at 12, 6 XIU/ml [2]: 124%
Relative inhibition, % at 1, 26 XIU/ml [3]: 88%
Relative inhibition, % at 3, 15 XIU/ml [3]: 48%
Relative inhibition, % at 6, 3 XIU/ml [3]: 31%
Relative inhibition, % at 12, 6 XIU/ml [3]: 26%
Relative inhibition, % at 1, 26 XIU/ml [4]: 84%
Relative inhibition, % at 3, 15 XIU/ml [4]: 54%
Relative inhibition, % at 6, 3 XIU/ml [4]: 39%
Relative inhibition, % at 12, 6 XIU/ml [4]: 34%
Relative inhibition, % at 1, 26 XIU/ml [5]: 75%
Relative inhibition, % at 3, 15 XIU/ml [5]: 40%
Relative inhibition, % at 6, 3 XIU/ml [5]: 24%
Relative inhibition, % at 12, 6 XIU/ml [5]: 20%
Relative inhibition, % at 1, 26 XIU/ml [6]: 74%
Relative inhibition, % at 3, 15 XIU/ml [6]: 39%
Relative inhibition, % at 6, 3 XIU/ml [6]: 22%
Relative inhibition, % at 12, 6 XIU/ml [6]: 20%
Substance: wheat endogenous xylanase inhibitor
